Data as given in patent US20120322150A1 (CARNEGIE INSTITUTION OF WASHINGTON, published 2012).

Columns and labels:
Experiment in all cases: BiFC in tobacco leaf epidermal cells
[1] = target: T1, At5g49760-nYFP (UniProt Q8GZ99 24-953)
T1 construct: BiFC negative control; not shown: N-terminal half of YFP (nYFP)
T1 sequence (looked up): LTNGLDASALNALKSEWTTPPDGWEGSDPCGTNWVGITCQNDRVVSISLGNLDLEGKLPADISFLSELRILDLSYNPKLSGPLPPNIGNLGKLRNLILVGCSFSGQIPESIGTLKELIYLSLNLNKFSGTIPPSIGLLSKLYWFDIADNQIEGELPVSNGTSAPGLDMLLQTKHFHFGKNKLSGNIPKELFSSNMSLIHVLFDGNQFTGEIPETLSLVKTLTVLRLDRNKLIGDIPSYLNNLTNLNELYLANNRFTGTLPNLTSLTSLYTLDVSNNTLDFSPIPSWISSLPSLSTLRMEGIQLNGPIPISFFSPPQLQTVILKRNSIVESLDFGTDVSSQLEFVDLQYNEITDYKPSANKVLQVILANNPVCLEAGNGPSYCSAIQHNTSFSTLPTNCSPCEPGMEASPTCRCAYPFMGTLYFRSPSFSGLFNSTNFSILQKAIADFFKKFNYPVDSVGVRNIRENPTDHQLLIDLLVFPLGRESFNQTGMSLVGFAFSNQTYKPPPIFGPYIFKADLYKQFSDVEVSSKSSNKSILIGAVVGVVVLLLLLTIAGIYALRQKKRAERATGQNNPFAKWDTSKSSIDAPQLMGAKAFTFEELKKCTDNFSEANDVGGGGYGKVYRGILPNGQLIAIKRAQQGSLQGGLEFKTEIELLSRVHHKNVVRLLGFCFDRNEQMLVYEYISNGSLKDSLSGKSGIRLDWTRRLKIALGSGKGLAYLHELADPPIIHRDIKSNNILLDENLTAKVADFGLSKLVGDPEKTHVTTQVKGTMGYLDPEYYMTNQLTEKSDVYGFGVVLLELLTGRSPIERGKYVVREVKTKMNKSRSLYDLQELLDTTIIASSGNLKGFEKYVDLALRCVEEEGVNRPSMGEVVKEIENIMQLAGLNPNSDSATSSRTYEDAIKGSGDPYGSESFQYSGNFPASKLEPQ
From the text: (§1) The blot was probed sequentially with MBP-BSU1 and anti-MBP antibody (upper) and then stained with Ponceau S (lower). […] Tobacco leaf epidermal cells were transformed with indicated constructs. At5g49760 is a receptor kinase unrelated to BR signaling used here as a negative control. Bright spots in nYFP+BSK 1-cYFP and At5g49760-nYFP+BSK1-cYFP are chloroplast auto-fluorescence. […] Total protein extracts obtained from Arabidopsis plants (F1) expressing BSU1 -YFP or co-expressing BSU1-YFP and BSK1-myc were immunoprecipitated with anti-myc, and the immunoblot was probed with anti-GFP and anti-myc antibody. […] GST-BSK1 or GST-BSK1 S230A was incubated with GST-BRI1-K or GST for 2 hrs. […] In the presence of BR (+BR), BR binding to the extracellular domain of BRI1 induces dissociation of BKI1 and association and inter-activation between BRI1 and BAKI. Activated BRI1 then phosphorylates BSK1, which in turn dissociates from the receptor complex and interacts with and presumably activate BSU1. BSU1 inactivates BIN2 by dephosphorylating its pTyr200, allowing accumulation of unphosphorylated BZR1/2, likely with help of a phosphatase that is yet to be identified. Unphosphorylated BZR1/2 accumulate in the nucleus and alter the expression of BR-target genes, leading to cellular and developmental responses. While individual representative protein is shown for each function, in Arabidopsis most of these components have about 2 to 5 homologous proteins (paralogs) that can contribute to the same or similar signaling function.
(§2) Transformation by Agrobacterium infiltration, observations of subcellular localization and BiFC signal in tobacco or Arabidopsis were performed as described previously 5.

[2] = target: BSU1 (BiFC construct tested with BSK1-cYFP) (Arabidopsis, UniProt Q9LR78 1-793)
Sequence of BSU1 (BiFC construct tested with BSK1-cYFP) (Q9LR78 whole entry): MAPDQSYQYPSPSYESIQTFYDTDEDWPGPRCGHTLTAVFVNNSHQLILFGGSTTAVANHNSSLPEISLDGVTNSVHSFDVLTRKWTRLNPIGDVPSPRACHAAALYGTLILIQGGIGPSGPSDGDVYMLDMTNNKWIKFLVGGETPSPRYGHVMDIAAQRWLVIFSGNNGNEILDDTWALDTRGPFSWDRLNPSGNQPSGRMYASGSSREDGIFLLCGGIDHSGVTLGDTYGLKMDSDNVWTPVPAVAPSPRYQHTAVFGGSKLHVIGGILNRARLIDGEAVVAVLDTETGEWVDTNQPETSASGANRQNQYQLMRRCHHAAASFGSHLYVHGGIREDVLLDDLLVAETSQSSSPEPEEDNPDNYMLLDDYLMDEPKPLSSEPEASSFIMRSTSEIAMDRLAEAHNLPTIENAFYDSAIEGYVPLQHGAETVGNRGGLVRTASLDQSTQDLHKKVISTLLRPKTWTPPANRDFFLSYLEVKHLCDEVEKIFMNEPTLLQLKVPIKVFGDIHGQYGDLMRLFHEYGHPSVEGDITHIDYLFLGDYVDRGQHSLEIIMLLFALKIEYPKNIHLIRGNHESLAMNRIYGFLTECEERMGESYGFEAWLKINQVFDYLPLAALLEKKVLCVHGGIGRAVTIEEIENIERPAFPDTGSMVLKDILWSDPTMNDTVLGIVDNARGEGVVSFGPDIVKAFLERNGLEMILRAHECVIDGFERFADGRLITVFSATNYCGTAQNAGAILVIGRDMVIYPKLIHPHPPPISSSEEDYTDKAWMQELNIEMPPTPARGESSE
From the text: as §1, §2

[3] = target: T2, BSL1 (BiFC construct tested with BSK1-cYFP) (Arabidopsis, UniProt Q8L7U5 1-881)
T2 sequence: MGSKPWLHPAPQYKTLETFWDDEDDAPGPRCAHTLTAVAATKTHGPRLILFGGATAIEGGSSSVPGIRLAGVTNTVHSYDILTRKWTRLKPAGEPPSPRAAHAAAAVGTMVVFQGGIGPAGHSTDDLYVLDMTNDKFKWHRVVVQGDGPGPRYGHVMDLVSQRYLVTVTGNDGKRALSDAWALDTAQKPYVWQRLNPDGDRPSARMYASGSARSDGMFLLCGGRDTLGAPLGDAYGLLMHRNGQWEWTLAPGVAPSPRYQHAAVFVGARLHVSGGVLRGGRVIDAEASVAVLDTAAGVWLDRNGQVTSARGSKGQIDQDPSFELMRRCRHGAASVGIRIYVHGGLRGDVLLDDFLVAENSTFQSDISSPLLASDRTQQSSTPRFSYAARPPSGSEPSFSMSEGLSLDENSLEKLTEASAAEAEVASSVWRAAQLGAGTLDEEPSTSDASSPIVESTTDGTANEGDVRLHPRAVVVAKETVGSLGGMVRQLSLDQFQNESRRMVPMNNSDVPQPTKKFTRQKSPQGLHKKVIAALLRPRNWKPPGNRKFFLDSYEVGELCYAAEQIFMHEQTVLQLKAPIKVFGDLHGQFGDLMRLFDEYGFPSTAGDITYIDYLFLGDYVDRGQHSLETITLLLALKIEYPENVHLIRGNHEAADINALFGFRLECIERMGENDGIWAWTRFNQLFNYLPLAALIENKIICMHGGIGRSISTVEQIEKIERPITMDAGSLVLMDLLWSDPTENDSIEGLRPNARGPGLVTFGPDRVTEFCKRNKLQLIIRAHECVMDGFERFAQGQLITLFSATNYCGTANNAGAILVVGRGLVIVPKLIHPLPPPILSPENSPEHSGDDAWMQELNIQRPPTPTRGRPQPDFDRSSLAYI
From the text: as §1, §2

B1: BSK1-cYFP (enzyme, Arabidopsis, UniProt Q944A7 2-512, looked up)
chain: GCCQSLFSGDNPLGKDGVQPQPLSQNNHGGATTADNGGSGGASGVGGGGGGGGIPSFSEFSFADLKAATNNFSSDNIVSESGEKAPNLVYKGRLQNRRWIAVKKFTKMAWPEPKQFAEEAWGVGKLRHNRLANLIGYCCDGDERLLVAEFMPNDTLAKHLFHWENQTIEWAMRLRVGYYIAEALDYCSTEGRPLYHDLNAYRVLFDEDGDPRLSCFGLMKNSRDGKSYSTNLAYTPPEYLRNGRVTPESVTYSFGTVLLDLLSGKHIPPSHALDMIRGKNIILLMDSHLEGKFSTEEATVVVELASQCLQYEPRERPNTKDLVATLAPLQTKSDVPSYVMLGIKKQEEAPSTPQRPLSPLGEACSRMDLTAIHQILVMTHYRDDEGTNELSFQEWTQQMKDMLDARKRGDQSFREKDFKTAIDCYSQFIDVGTMVSPTVFGRRSLCYLLCDQPDAALRDAMQAQCVYPDWPTAFYMQSVALAKLNMNTDAADMLNEAAQLEEKRQRGGRGS
notes: BiFC construct in tobacco leaf epidermal cells; not shown: C-terminal half of YFP (cYFP)
binding result [1]: no binding
binding result [2]: binds
binding result [3]: binds
